From the nanobody polyreactivity screen of Harvey et al. (2022)

Test: yeast display, Sf9 membrane polyspecificity reagent, FACS + sequencing; frameworks hold sequencing errors
In short: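 Using colony PCR, genes from sorted yeast display clones were amplified, then sequenced on MiSeq at 2 × 250 and filtered by CDR length. The clones had been stained with 10% biotinylated, detergent-solubilized Sf9 membrane reagent for 1 hour at 4 °C and sorted by FACS into low and high (top ~1%) gates on anti-HA and streptavidin fluorescence. Polyreactivity labels come from the gate of origin.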

| Sequence | polyreactivity (PSR sort gate) |
| --- | --- |
| QVQLQECGGGLVQAGRSLRLSCAASGTFSNSVKWLYCQAPGKEREFVATIGVGGSTNYADSVKGRFTISRDNAKYTVYLQMNSLKPEDTGVYHCAGYGAASNFHYDRGQGTQVTVSS | low polyreactivity |
| QVQLVESGGGLVQAGGSLRLSCAASGRIFVYYAMGWYRPAPGKERELVAAITSGGSTYYADSVKGRFTISRDNANNTVYLQMNSLKPEDTAVYYSAAYRYYYLVYQQHREYGYWGQGSQVTVSS | high polyreactivity |
| QVQLVETGGCLVQAGCSLRLSCAASGIIFYEYAMGRYRQAPGKERELVAAIDWSGGSTYYADSVKGRFTISRDNAKNTVYLQMNRLKPEDSAVYYCAAQWAWVDYFGNWYASTYDYWGQGTQVTVSS | high polyreactivity |
| QVQLVESGGGLVQAGGSLRLSCAASGSIFNYNMGWYRQAPGKERELVAAVSTNYADSVKGRFTISRDNAKNTVYLQMNSLKPEDTAVYYCGVTPEKSGDEYDYWGQGTQVTVSS | low polyreactivity |
| QVQLVESGGGLVQAGGSLRLSCASSGRTFPAYAMGWYRPAPGKERELVAAISSSGSRTYYAASVKGRFTISRDNAKNTVYLQMNRLIPEDTAVYYCAARGGRRQKVNRDDYWGQVTQVTVSS | high polyreactivity |
| QVQLVESGGGLVQAGGSLRLSCAASGRTFWYYAMGWYRQAPGKERELVAAITSGGSTNYADSVKGRFTISRDNAKNTVYLQMNSLKPEDTAVYYCAVDGLGGREGYWGQGTQVTVSS | high polyreactivity |
| QVQLVESGGGLVQAGGSLRLSCAASGRTFKIHAMGWYRQATGKERELVAAISTSGGSTYYADSVKGRLTISRDNAKNTVYLQMNSLKPEDTAVYYCNAPVFRVGRPEYDYWGQGTQVTVSS | high polyreactivity |
| HVQLVQSGGGLVQAGGSLRLSCAASVYTFVYYAIGWYRQATGKERELVAAITSRAGRTYYADSVKGRFTISRDNAKNTVYLQMNSLKPEDTAVYYCNAASTKITRFDYWGQGTQVTVSS | high polyreactivity |
| QVQLVESGGGLVQAGGSLRLSFAATGSILLRYAMGWYRQAPGKERELVAAISYDGGGTFYADSVKGRFTISRDNAKNTVYLQMHSLKPEDTAVYYCAARVIFRVKGLEYWGQGTQVTVSS | low polyreactivity |
| QVQLVESGGGLVQAGGSLRLSCAASGRIFGKNAMGWYIQAPRKERDLVAAITSTGGTTYYADSVMGRFTISRDNAKNTVYLQMNSLKPEDSAVYDCAKDGQTNNETQGLKYDYWGQGTQLTVSS | low polyreactivity |
| QVQLVESGGGLVQAGGSLRLSCAASGRTFWHNAMGWYRQEPGKERELVAAITIRGGRTYYADSVKGRFTISRDNAKNTVYLQMNSLKPEDTAVYYCAAPPFVKMDYWGQGTQVTVSS | high polyreactivity |
| QVQLVESGGGLVQAGGSLRLSCAASGRIFGPYTKGWYRQAPGKERQLVAAISCSGGSTYYADSVKGRFTISRDNAKNTVYLQMNSLKPEDTAVSYCKADHPFPQYEGGSSGQGTQVTVSS | low polyreactivity |
| QVQLVESGGGLVQAGGSLRLSCAASGIIFIGYTMGWYRQAPGKERELVAAISRIGGSTYYADSVKGRFTISRDNAKNTVYLQMNSLKPEDTAVYYCAAQYYGSSYRRGYYWGQGTQVTVSS | high polyreactivity |
| QVQLVESGGGLVQAGGSLRLSCAASGSIFISYAMGWYRQAPGKERELVAAISSGGSTNYADSVKGRFTISRDNAKNTVYLQMNSLIPEDTAVYYCAAASAAGYDYWGQGTQVTVSS | low polyreactivity |
| QVQLVESGGGLVQAGGSLRLSCAASGRIFGYYAMGWYRQAPGKERELVAAISYSTGGTSTYADSVKGRFTISRDNAKNTVYLQMNSLKPDDTAVYYCAKRIFTSARLNYWGQGTQVTVSS | high polyreactivity |
| QVQLVESGGGLVQAGGSLRLSCAASGLTFKRNAMGWYRQAPGKERELVAAIRYSTDSTNYADSVKGRFTISRDNAMYTVYLQMNSLKPEDTAVYYCAKDKQDYEYWGQGTQVTVSS | low polyreactivity |
| QVQLVESGGGLVQAGGSLRLSCAASGRIFSRYAMGWYRQAPGKERELVAAISRNGGSTYYADSVKGRFTISRDNAKNTVYLQMNSLKPEDTAVYYCNARGNQAVNGYEYWGQGTQVTVSS | high polyreactivity |
| QVQLVESGGGLVQAGGSLRLTCAASGSIFGWYVMGWYIPAPGKERELVAAISSVGSTYYADSVKGRFTISRDNAKNTVYLQMKSLKREDTAVYYCAKLRYPYLFWDDSEYWGQGTQVTVSS | low polyreactivity |
| QVQLVESGGGLVQAGGSLRLSCAASGRTFYLNAMGWYRPAPGKDRELVATITSRAGSTRYADSVKGRFTISRDNAKNTVYLQMNSLKPEDTAVYYCAVRSTDPYRRGPSYYYWGQGTQVTVSS | high polyreactivity |
| QVQLVESGGGLVQAGGSLRLTCAASGLIFRPYTMGWYRQAPGKERELVATISGSGASTNYADSVKGRFTNSRDNAKNTVYFQMNSLKPEDTSVYYCKGRSYSRMYYWGQGTQVTVSS | high polyreactivity |
| QVQLVESGGGLVQAGGSLRLSCAASGRIFYINAMGWYRQAPGKERELVAAITGGDGSTTYADSVKGRFTISRDNAKNTVYLQMNSLKPEDTAVYYCNADTARKYAESQFDHWGQGTQVTVSS | low polyreactivity |
| QVQLVESGGGLVQAGGSLRLSCAACGRTFVDYVMGSYRQAPGKERELVAAISRSGSTYYADSVKGRFTISRDNAKNTVYLQRNSLKPEDTAVYYCAASSVALPWYASWYVYGYEYCGQGTQVTVSS | low polyreactivity |

| Sequence | polyreactivity (PSR sort gate) |
| --- | --- |
| QVQLVESGGGVVQAGGSLRLSCAASGRILRGYALGWYRPAPGTERELVAAITWRGGSTYYADSVKGRFTISRDNAKNTVYLQMNSLKPEDTAVYYCAADRAYRYEMDYWGQGTQVTVSS | high polyreactivity |
| QVQLVESGGGLDQAGGSLRLSCAASGSIFGVNDMVWNRQAPGKERELVAAISGGGSTYYADSVKGRFTISRDNAKNTVYLQMNSLKPEDTAVYYCARRRTKSYTRKYDYWGQGTQVTVSS | low polyreactivity |
| QVQLVESGGGLVQAGGSLRLSCAASGGTFHHYAMGWYRQAPGKERELVASITNGASTYYADSVKGRFTISRDNAKNTVYLQMNSLKPEDTAVYYCAKRCRVGKYRYEYWGQGTQVTVSS | low polyreactivity |
| QVQLVESGGGLVQAGGSLRLSCAASGSIFTTYAMGWYRQAPGKERELVAVISRRGGSTYYADSVKGRFTISRDNAKNTVYLQMNSLKPEDTAVYYCNAAYVWYRIFVRRDYWGQGTQVTVSS | high polyreactivity |
| QVQLVESGGGLVQAGGSLRLSCAASGFTFFSNAMGWYRQAPGKDRELVAAITSSGGSTYADSVKGRFTISRDNAKNTVYLQMNSLKPEDTAVYYCAADAQAPPCGFKEYDYWGQGTQVTVSS | low polyreactivity |
| QVQLVESGGGLVQAGGSLRLSCAASGGTFYSYAMGWYRQAPGKEREFVAAITYGGGSTYYADSEKGRFTISRDNAKNSVYLQKNSLKPEDTAVYYCNARRYGSRLGERYYYWGQGTQVTVSS | high polyreactivity |
| QVQLVESGGGLVQAGGSLRLSCAASGSTYYWYMGWYRQAPGKERELVAAITSGGRTYYADSVKGRFTISRDNAKNTVYLQMNSLKPEDTAVYYCARPYSRAYDYWGQGTQVTVSS | high polyreactivity |
| QVQLVESGGGLVQAGGSLRLSCAASGRIFGHYVMGWYRQAPRKERELDAAITRGDSTYYADSVKGRFTISRDNAKNTVYLEMNSLKPEDTAVYYCAARVWRVDARDRYYWGQGTQVTVSS | high polyreactivity |
| QVQLVESGGGLVQAGGSLRLSCAASGSTFSYYVMGWYRPAPGKERELVAAISGSGGSTYYADSVKGRFTISRDNAKNTVYLQMNSLKPEDTAVYYCDANDGSEYDYWGQGTQVTVSS | high polyreactivity |
| QVQLVESGGGLVQAGGSLRLSCSASGRIFGRYAMGWYRQAPGKERELVAAISASGGSTYYADSVKGRFTISRDNAKNTVYLQMNSLKPEDTAVYYCAADAPAEYYWGQGTQVSVSS | low polyreactivity |
| QVQIVESGGGLVQAGGSLRLSCAASGRIFRSNTMGWYRPAPGKERELVARISKRGGSTNYADSVKGRFTISRDIAKNTVYLQMNRLKPEDTAVYYCAARYYYAGYYVKYYYWGQGTQVTVSS | high polyreactivity |
| QVQLVESGGGLVQAGGSLRLSCAASGFTFRYYAMGWYRQAPRKERELVAAIPRNGGSTYYADTVKGRFTISRDNAKNTVYLQMKSLKPEDTAVYYCAAAYYRDSDRRFNYWGQGTQVTVSS | high polyreactivity |
| QVQLVESGGGLVQAGGSLRLSCAASGFTFRAYAMGWYRQAPGKERELVAGITRSGGSTHYADSVKGRFTISRDNAKNTVYLQMNSLKPEDTAVYYCNARYPYRGKRKPPDYWGQGTQVTVSS | high polyreactivity |
| QVQLVESGGGLVQAGGSLRLSCAASGGIFRVYAMGWYRQAPGKERELVAAISRSGSSTYYADSVKGRFTISRDNAKNTVYLQMTSLKPEDTAVYYCNAYSQYWLGNNYWGQGTQVTLSS | high polyreactivity |
| QVQLVESGAGLVQAGGSLRLSCATYGITISYYAMVWYGQGPGKVSELVAAISTSGGSTYYADSVKGRFTFSRDNAKNTVYLQMNSLKPEDTAVFYCAAVYTTGGYTGLEYWGQGTQVTVSS | high polyreactivity |
| QVQLVESGGGLVQAGGSLRLSCAASGIIFGRYAMGWYRQAPGKERELVAAITWSGGGTYYADSVKGRFTISRDNAKNTVYLQMNSLKPEDTAVYYCAARTTPHWGYVSTNYWGQGTQVTVSS | low polyreactivity |
| QVQLVESGGGLVQAGGSLRLSCAASGSIFASNAMGWYRQAPGKEREFVAAITWRTDRTHYADSVKGRFTISRDNAKNTVYLQMNSLKPEDTAVYYCAADTWFYRFYYWGQGTQVTVSS | high polyreactivity |
| QVQLVESGGGLVQAGGSLRLICAASGSIFADYAMGWYRQAPGKERELVAAITGSGGRTYYADSVKGRFTISRDNAKNTVYLQMNSLKPEDTAVYYCAAYQVVWDPYTRYDYWGQGTQVTVSS | low polyreactivity |
| QVQRVESGGGLVQAGGSLRLSCAASGSTFKKYVMGWYRPAPGKERELVAAISGRGGSTYYADSVKGRFTISRDNAKNTVYLQMNSLKPEDTAVYYCNARKQTARFDSWGQGTQVTVSS | high polyreactivity |
| QVQLVESGGGIVPAGGSLRLSCAASGLTFRFNAMGWYRQAPGKERELVADITVSGGRTYYADSVKGRFTISRDNAKNTVYLQMNSLKPEDTAVYYCARRRTVGVTEPFSRGYDYWGQGTQVTVSS | low polyreactivity |
| QVQRVESGGGLVQAGGSLRLSCAASGYTFQWYDMGWYRQAPGKERELVASISWRGGSTYYADSVKGRFTISRDNAKNTVYFQMNSLKPEDTAVYYCAASLLPDYQYDYWGQGTQVTVSS | low polyreactivity |
